IntAct's records for PubMed 31515488

B1: E3 ubiquitin-protein ligase TRIM9 (Homo sapiens), Q9C026-5 (parent)
chain: MEEMEEELKCPVCGSFYREPIILPCSHNLCQACARNILVQTPESESPQSHRAAGSGVSDYDYLDLDKMSLYSEADSGYGSYGGFASAPTTPCQKSPNGVRVFPPAMPPPATHLSPALAPVPRNSCITCPQCHRSLILDDRGLRGFPKNRVLEGVIDRYQQSKAAALKCQLCEKAPKEATVMCEQCDVFYCDPCRLRCHPPRGPLAKHRLVPPAQGRVSRRLSPRKVSTCTDHELENHSMYCVQCKMPVCYQCLEEGKHSSHEVKALGAMWKLHKSQLSQALNGLSDRAKEAKEFLVQLRNMVQQIQENSVEFEACLVAQCDALIDALNRRKAQLLARVNKEHEHKLKVVRDQISHCTVKLRQTTGLMEYCLEVIKENDPSGFLQISDALIRRVHLTEDQWGKGTLTPRMTTDFDLSLDNSPLLQSIHQLDFVQVKASSPVPATPILQLEECCTHNNSATLSWKQPPLSTVPADGYILELDDGNGGQFREVYVGKETMCTVDGLHFNSTYNARVKAFNKTGVSPYSKTLVLQTSEGKALQQYPSERELRGI
B2: Transcription initiation factor IIA subunit 1 (Homo sapiens), P52655-1 (parent)
chain: MANSANTNTVPKLYRSVIEDVINDVRDIFLDDGVDEQVLMELKTLWENKLMQSRAVDGFHSEEQQLLLQVQQQHQPQQQQHHHHHHHQQAQPQQTVPQQAQTQQVLIPASQQATAPQVIVPDSKLIQHMNASNMSAAATAATLALPAGVTPVQQILTNSGQLLQVVRAANGAQYIFQPQQSVVLQQQVIPQMQPGGVQAPVIQQVLAPLPGGISPQTGVIIQPQQILFTGNKTQVIPTTVAAPTPAQAQITATGQQQPQAQPAQTQAPLVLQVDGTGDTSSEEDEDEEEDYDDDEEEDKEKDGAEDGQVEEEPLNSEDDVSDEEGQELFDTENVVVCQYDKIHRSKNKWKFHLKDGIMNLNGRDYIFSKAIGDAEW
B3: Leucine rich adaptor protein 1 (Homo sapiens), Q96LR2 (parent)
chain: MEGTVESQTPDLRDVEGKVGRKTPEGLLRGLRGECELGTSGALLLPGASSTGHDLGDKIMALKMELAYLRAIDVKILQQLVTLNEGIEAVRWLLEERGTLTSHCSSLTSSQYSLTGGSPGRSRRGSWDSLPDTSTTDRLDSVSIGSFLDTVAPSELDEQGPPGAPRSEMDWAKVIAGGERARTEVDVAATRLGSLRAVWKPPGERLQGGPPESPEDESAKLGFEAHWFWEQCQDDVTFL
partner: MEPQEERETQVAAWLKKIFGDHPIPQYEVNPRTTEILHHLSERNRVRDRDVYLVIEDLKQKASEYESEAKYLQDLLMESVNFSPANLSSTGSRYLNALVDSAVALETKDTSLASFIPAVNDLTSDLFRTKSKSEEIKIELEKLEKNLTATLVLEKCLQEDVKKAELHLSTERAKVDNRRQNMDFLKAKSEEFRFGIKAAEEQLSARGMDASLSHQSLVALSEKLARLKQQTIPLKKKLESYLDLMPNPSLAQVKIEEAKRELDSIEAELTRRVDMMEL
B4: DNA topoisomerase 3-beta-1 (Homo sapiens), O95985 (parent)
chain: MKTVLMVAEKPSLAQSIAKILSRGSLSSHKGLNGACSVHEYTGTFAGQPVRFKMTSVCGHVMTLDFLGKYNKWDKVDPAELFSQAPTEKKEANPKLNMVKFLQVEGRGCDYIVLWLDCDKEGENICFEVLDAVLPVMNKAHGGEKTVFRARFSSITDTDICNAMACLGEPDHNEALSVDARQELDLRIGCAFTRFQTKYFQGKYGDLDSSLISFGPCQTPTLGFCVERHDKIQSFKPETYWVLQAKVNTDKDRSLLLDWDRVRVFDREIAQMFLNMTKLEKEAQVEATSRKEKAKQRPLALNTVEMLRVASSSLGMGPQHAMQTAERLYTQGYISYPRTETTHYPENFDLKGSLRQQANHPYWADTVKRLLAEGINRPRKGHDAGDHPPITPMKSATEAELGGDAWRLYEYITRHFIATVSHDCKYLQSTISFRIGPELFTCSGKTVLSPGFTEVMPWQSVPLEESLPTCQRGDAFPVGEVKMLEKQTNPPDYLTEAELITLMEKHGIGTDASIPVHINNICQRNYVTVESGRRLKPTNLGIVLVHGYYKIDAELVLPTIRSAVEKQLNLIAQGKADYRQVLGHTLDVFKRKFHYFVDSIAGMDELMEVSFSPLAATGKPLSRCGKCHRFMKYIQAKPSRLHCSHCDETYTLPQNGTIKLYKELRCPLDDFELVLWSSGSRGKSYPLCPYCYNHPPFRDMKKGMGCNECTHPSCQHSLSMLGIGQCVECESGVLVLDPTSGPKWKVACNKCNVVAHCFENAHRVRVSADTCSVCEAALLDVDFNKAKSPLPGDETQHMGCVFCDPVFQELVELKHAASCHPMHRGGPGRRQGRGRGRARRPPGKPNPRRPKDKMSALAAYFV
partner: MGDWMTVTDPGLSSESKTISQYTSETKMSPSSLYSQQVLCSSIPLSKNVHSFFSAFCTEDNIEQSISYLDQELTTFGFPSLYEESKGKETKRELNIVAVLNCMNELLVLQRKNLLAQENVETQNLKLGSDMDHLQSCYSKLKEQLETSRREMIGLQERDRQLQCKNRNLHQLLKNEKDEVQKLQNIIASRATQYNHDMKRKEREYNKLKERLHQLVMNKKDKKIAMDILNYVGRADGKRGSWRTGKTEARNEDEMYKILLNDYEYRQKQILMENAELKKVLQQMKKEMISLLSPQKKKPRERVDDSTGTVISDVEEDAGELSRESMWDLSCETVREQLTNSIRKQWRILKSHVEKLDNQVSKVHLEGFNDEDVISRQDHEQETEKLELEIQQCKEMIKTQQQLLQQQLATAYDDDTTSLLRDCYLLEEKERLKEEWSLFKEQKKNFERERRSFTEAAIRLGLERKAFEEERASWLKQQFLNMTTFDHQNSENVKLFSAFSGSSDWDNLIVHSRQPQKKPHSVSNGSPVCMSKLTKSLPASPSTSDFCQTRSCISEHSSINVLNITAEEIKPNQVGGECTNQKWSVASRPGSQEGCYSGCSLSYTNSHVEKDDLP
B5: U3 small nucleolar RNA-associated protein 14 homolog C (Homo sapiens), Q5TAP6 (parent)
chain: MNVNQVAENLALSHQEELVDLPKNYPLSENEDEGDSDGERKHQKLLEAIISLDGKNRRKLAERSEASLKVSEFSVSSEGSGEKLGLADLLEPVKTSSSLATVKKQLNRVKSKKVVELPLNKEKIEQIHREVAFSKTSQVLSKWDPIILKNQQAEQLVFPLGKEQPAIAPIEHALSGWKARTPLEQEIFNLLHKNKQPVTDPLLTPMEKASLQAMSLEEAKMHRAELQRARALQSYYEAKARKEKKIKSKKYHKVVKKGKAKKALKEFEQLQKVNPTVALEEMEKIENARMMERMSLKHQNSGKWAKSKAIMAKYDLEARQAMQEQLAKNKELTQKLQVASESEEEEGGTEVEELLVPHVANEVQMNVDGPNPWMFRSCTSDTKEAATQEDPEQVPELAAHEVSASEAEERPVAEEEILLREFEERQSLRKRSELNQDAEPASSQETKDSSSQEVLSELRALSQKLKEKHQSRKQKASSEGTVPQVQREEPAPEEAEPLLLQRSERVQTLEELEELGKEDCFQNKELPRPVLEGQQSERTPNNRPDAPKEKKEKEQLINLQNFLTTQSPSVRSLAVPTIIEELEDEEERDQRQMIKEAFAGDDVIRDFLKEKREAVEASKPKDVDLTLPGWGEWGGVGLKPSAKKRRQFLIKAPEGPPRKDKNLPNVIISEKRNIHAAAHQVQVLPYPFTHHRQFERTIQTPIGSTWNTQRAFQKLTTPKVVTKPGHIIKPIKAEDVGYQSSSRSDLPVIQRNPKRITTRHNKEEKL
partner: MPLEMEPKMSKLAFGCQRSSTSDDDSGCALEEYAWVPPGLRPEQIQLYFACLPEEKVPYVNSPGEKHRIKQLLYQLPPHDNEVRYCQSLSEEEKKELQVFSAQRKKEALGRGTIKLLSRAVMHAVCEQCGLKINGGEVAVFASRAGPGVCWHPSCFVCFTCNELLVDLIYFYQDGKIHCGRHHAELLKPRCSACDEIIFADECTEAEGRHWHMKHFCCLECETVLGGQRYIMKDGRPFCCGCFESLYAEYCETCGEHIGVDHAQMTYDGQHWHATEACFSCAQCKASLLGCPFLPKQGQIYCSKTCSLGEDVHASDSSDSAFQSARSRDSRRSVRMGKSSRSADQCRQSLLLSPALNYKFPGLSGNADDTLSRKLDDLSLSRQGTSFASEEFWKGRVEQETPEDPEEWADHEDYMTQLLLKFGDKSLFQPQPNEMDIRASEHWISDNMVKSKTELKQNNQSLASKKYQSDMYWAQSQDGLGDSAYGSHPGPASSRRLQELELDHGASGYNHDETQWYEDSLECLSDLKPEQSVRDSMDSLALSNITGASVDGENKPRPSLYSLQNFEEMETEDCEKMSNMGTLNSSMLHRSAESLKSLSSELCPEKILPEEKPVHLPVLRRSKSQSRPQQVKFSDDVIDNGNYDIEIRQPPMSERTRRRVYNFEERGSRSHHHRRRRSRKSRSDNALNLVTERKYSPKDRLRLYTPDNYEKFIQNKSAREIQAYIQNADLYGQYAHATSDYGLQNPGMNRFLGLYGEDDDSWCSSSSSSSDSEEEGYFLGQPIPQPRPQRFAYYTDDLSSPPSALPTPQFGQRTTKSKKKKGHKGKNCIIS

Variants of: B1
Conditions: with fbw1a_human BTRC

effect of a mutation on the interaction	Variant
with no effect	L277F

Variants of: B2
Conditions: with nfya_human NFYA

effect of a mutation on the interaction	Variant
with no effect	L30V

Variants of: B3
Conditions: with haus1_human HAUS1, Q96CS2

effect of a mutation on the interaction	Variant
with no effect	M60L
with no effect	Q207R

Variants of: B4
Conditions: with adip_human SSX2IP

effect of a mutation on the interaction	Variant
disrupting interaction strength	R267W

Variants of: B5
Conditions: with pric1_human PRICKLE1, Q96MT3

effect of a mutation on the interaction	Variant
with no effect	R672H
